Reference: patent US10947272B2, “BACE1 inhibitor peptides” (HOFFMANN-LA ROCHE INC., priority 2015, dated 2021)
Where a name gives a salt, the structure may show the parent alone. Numbered stars: 1 amine (or outer) side, 2 acyl side, 3 side chain; on linkers, the order of the positions; unused ones are H or OH. Square brackets hold non-standard residues; d marks the D form. Ends that are not written are not given here. Peptide text beside a SMILES is read from it. MetSta(3S,4S) = CSCC[C@H](N[*:1])[C@@H](O)CC(=O)[*:2]; Sta = CC(C)C[C@H](N)[C@@H](O)CC(=O)O

Biological target: T1, BACE1 (Asp2, β-secretase, Memapsin-2) in HEK293 cells stably expressing human APP695 (UniProt P56817 46-501, limits assumed)
T1 sequence (P56817 46-501 limits assumed): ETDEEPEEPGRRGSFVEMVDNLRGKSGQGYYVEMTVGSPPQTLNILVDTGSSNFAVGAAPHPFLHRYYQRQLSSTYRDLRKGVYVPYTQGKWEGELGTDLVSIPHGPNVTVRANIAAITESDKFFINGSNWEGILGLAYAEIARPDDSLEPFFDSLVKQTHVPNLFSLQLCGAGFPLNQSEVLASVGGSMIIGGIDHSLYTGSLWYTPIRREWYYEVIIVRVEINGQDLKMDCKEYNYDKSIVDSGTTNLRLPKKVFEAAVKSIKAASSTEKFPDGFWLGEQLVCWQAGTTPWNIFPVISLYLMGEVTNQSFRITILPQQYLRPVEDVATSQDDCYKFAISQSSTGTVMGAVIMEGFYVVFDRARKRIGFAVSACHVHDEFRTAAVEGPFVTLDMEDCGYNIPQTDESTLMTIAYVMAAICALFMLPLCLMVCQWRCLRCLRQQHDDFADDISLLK
Assay: cell-based or functional assay
Settings: not given

Molecule | IC 50, cellular Aβ-lowering assay (Aβ40 in supernatant of HEK293 cells expressing human APP695)
Ac-QQYPYFKPAN-NH2 [Ac-Gln-Gln-Tyr-Pro-Tyr-Phe-Lys-Pro-Ala-Asn-NH2] | > 40 µM
Ac-YPTFKPANGS-NH2 (not fully specified; printed as Ac-YPTFKPANGS-NH2) [Ac-YPTFKPANGS-NH2] | > 40 µM
Ac-STGARFIPAN-NH2 [Ac-Ser-Thr-Gly-Ala-Arg-Phe-Ile-Pro-Ala-Asn-NH2] | > 40 µM
Ac-GDYPKFISAN-NH2 [Ac-Gly-Asp-Tyr-Pro-Lys-Phe-Ile-Ser-Ala-Asn-NH2] | > 40 µM
Ac-GDYPKFIPAS-NH2 [Ac-Gly-Asp-Tyr-Pro-Lys-Phe-Ile-Pro-Ala-Ser-NH2] | > 40 µM
Ac-GSYPKFIDAN-NH2 [Ac-Gly-Ser-Tyr-Pro-Lys-Phe-Ile-Asp-Ala-Asn-NH2] | > 40 µM
Ac-LTTYPYFKPA-NH2 [Ac-Leu-Thr-Thr-Tyr-Pro-Tyr-Phe-Lys-Pro-Ala-NH2] | 14.4 µM

Biological target: BACE1 (Asp2, β-secretase, Memapsin-2) in HEK293 cells stably expressing human APP695 (UniProt P56817)
Sequence (P56817 46-501 limits assumed): as above
Assay: cell-based or functional assay
Settings: not given

Molecule | IC 50, cellular Aβ-lowering assay (Aβ40 in supernatant of HEK293 cells expressing human APP695)
H-YPY[dK]IPLG[dK]GEVN[Sta]VAE[dP]-NH2 | 34.8 µM

Biological target: T1, BACE1 (Asp2, β-secretase, Memapsin-2) …
Assay: cell-based or functional assay
Settings: not given
Remark: another data set of the same source

Molecule | IC 50, cellular Aβ-lowering assay (Aβ40 in supernatant of HEK293 cells expressing human APP695)
EVN[Sta]VAEF-NH2 (also: TFA salt) [Glu-Val-Asn-Sta-Val-Ala-Glu-Phe-NH2 × TFA] | > 40 µM
EVN[MetSta(3S,4S)]VAE[dF]-NH2 (also: TFA salt) [Glu-Val-Asn-MetSta-Val-Ala-Glu-DPhe-NH2 × TFA] | > 40 µM
EVN[Sta]VAE[dP]-NH2 (also: TFA salt) [Glu-Val-Asn-Sta-Val-Ala-Glu-DPro-NH2 × TFA] | > 40 µM

Biological target: T2, BACE1 (Homo sapiens, UniProt P56817)
T2 construct: Human HEK293 cells which are stably transfected with a vector expressing a cDNA of the human APP wt gene (APP695); endogenous in cells; host or cells: HEK293 (human), stably transfected with human APP695 wt cDNA
T2 sequence (P56817 46-501): as the sequence (P56817 46-501 limits assumed) above
Assay: Cellular Aβ-lowering assay (Aβ40 ELISA of culture supernatant)
Assay type: cell-based
Settings: dual-site BACE1 inhibitors; HEK293 cells stably transfected with human APP wt (APP695); 18-20 hrs incubation; Aβ40 in supernatant; read-out: IC 50
Description: The compounds were investigated in accordance with the test given hereinafter. Cellular Aβ-Lowering Assay: Human HEK293 cells which are stably transfected with a vector expressing a cDNA of the human APP wt gene (APP695) were used to assess the potency of the compounds in a cellular assay. The cells were seeded in 96-well microtiter plates in cell culture medium (Iscove, plus 10% (v/v) fetal bovine serum, glutamine, penicillin/streptomycin) to about 80% confluence and the compounds were added at a 10× concentration in 1/10 volume of medium without FCS containing 8% DMSO (final concentration of DMSO was kept at 0.8% v/v). After 18-20 hrs incubation at 37° C. and 5% CO2 in a humidified incubator the culture supernatant was harvested for the determination of Aβ40 concentrations. 96 well ELISA plates (e.g., Nunc MaxiSorb) were coated with monoclonal antibody which specifically recognize the C-terminal end of Aβ40 (Brockhaus et al., NeuroReport 9, 1481-1486; 1998). After blocking of non-specific binding sites with e.g. 1% BSA and washing, the culture supernatants were added in suitable dilutions together with a horseradish peroxidase-coupled Aβ detection antibody (e.g., antibody 4G8, Senetek, Maryland Heights, Mo.) and incubated for 5 to 7 hrs. Subsequently the wells of the microtiter plate were washed extensively with Tris-buffered saline containing 0.05% Tween 20 and the assay was developed with tetramethylbenzidine/H2O2 in citric acid buffer. After stopping the reaction with one volume 1 N H2SO4 the reaction was measured in an ELISA reader at 450 nm wavelength. The concentrations of Aβ in the culture supernatants were calculated from a standard curve obtained with known amounts of pure Aβ peptide.

Molecule | IC50
CC[C@H](C)[C@H](NC(=O)[C@H](Cc1ccccc1)NC(=O)[C@H](CCCNC(=N)N)NC(=O)[C@H](C)NC(=O)CN)C(=O)N1CCC[C@H]1C(=O)N[C@@H](C)C(=O)NCC(=O)N[C@H](CCCCN)C(=O)NCC(=O)N[C@@H](CCC(=O)O)C(=O)N[C@H](C(=O)N[C@@H](CC(N)=O)C(=O)N[C@@H](CC(C)C)[C@@H](O)CC(=O)N[C@H](C(=O)N[C@@H](C)C(=O)N[C@@H](CCC(=O)O)C(=O)N1CCC[C@@H]1C(N)=O)C(C)C)C(C)C [Example 16, Gly-Ala-Arg-Phe-Ile-Pro-Ala-Gly-DLys-Gly-Glu-Val-Asn-Sta-Val-Ala-Glu-DPro-NH2 × 3TFA] (H-GARFIPAG[dK]GEVN[Sta]VAE[dP]-NH2; N-terminus assumed) | 0.42 µM
CC[C@H](C)[C@H](NC(=O)[C@H](Cc1ccccc1)NC(=O)[C@H](Cc1ccc(O)cc1)NC(=O)[C@@H](CCCCN)NC(=O)[C@@H](N)Cc1ccc(O)cc1)C(=O)N1CCC[C@H]1C(=O)N[C@@H](CC(C)C)C(=O)NCC(=O)N[C@H](CCCCN)C(=O)NCC(=O)N[C@@H](CCC(=O)O)C(=O)N[C@H](C(=O)N[C@@H](CC(N)=O)C(=O)N[C@@H](CC(C)C)[C@@H](O)CC(=O)N[C@H](C(=O)N[C@@H](C)C(=O)N[C@@H](CCC(=O)O)C(=O)N1CCC[C@@H]1C(N)=O)C(C)C)C(C)C [Example 31, H-Tyr-DLys-Tyr-Phe-Ile-Pro-Leu-Gly-DLys-Gly-Glu-Val-Asn-Sta-Val-Ala-Glu-DPro-NH2] (H-Y[dK]YFIPLG[dK]GEVN[Sta]VAE[dP]-NH2) | > 40 µM
CC[C@H](C)[C@H](NC(=O)[C@H](Cc1ccccc1)NC(=O)[C@H](Cc1ccc(O)cc1)NC(=O)[C@@H]1CCCN1C(=O)[C@@H](N)Cc1ccc(O)cc1)C(=O)N1CCC[C@H]1C(=O)N[C@@H](CC(C)C)C(=O)NCC(=O)NCC(=O)NCC(=O)N[C@@H](CCC(=O)O)C(=O)N[C@H](C(=O)N[C@@H](CC(N)=O)C(=O)N[C@@H](CC(C)C)[C@@H](O)CC(=O)N[C@H](C(=O)N[C@@H](C)C(=O)N[C@@H](CCC(=O)O)C(=O)N1CCC[C@@H]1C(N)=O)C(C)C)C(C)C [Example 2, Tyr-Pro-Tyr-Phe-Ile-Pro-Leu-Gly-Gly-Gly-Glu-Val-Asn-Sta-Val-Ala-Glu-DPro-NH2 × TFA] | 0.42 µM
